Test results: US20140308307A1 (University of Texas, published 2014)

Biological target: the molecule itself
Test: X-ray crystal structure of the complex

B1: P94S mutant F2F3 fragment of human CPSF30 (variant used in the X-ray crystal structure determination) (other)
chain: SGEKTVVCKHWLRGLCKKGDQCEFLHEYDMTKMSECYFYSKFGECSNKECPFLHIDPESKI
notes: also called F2F3 with Ser in place of Pro at position 94; F2F3-A; not shown: N-terminal hexaHis tag
- binding result: binds
